For this assay, the target named is T1, GST (glutathione-S-transferase) (UniProt P08515 1-218 = GST).
T1 construct: Control protein in the GST pull-down
The experiment in a line: GST pull-down on glutathione beads, immunoblot with anti-His or anti-MUC1-C. The procedure:
The binding of MUC1 to HSF1 could be direct or indirect, for example, through a third protein. To determine if the interaction between MUC1 and HSF1 is a direct, physical interaction, in vitro binding assays was performed. GST- and GST-STAT3 polypeptides were incubated with purified His-tagged MUC1-CD (similar to GST-HSF1-His-MUC1 experiments described above). The protein mixtures were then incubated with glutathione beads, which bind to the GST proteins and associated binding partners if present. The glutathione bead adsorbates were washed and immunoblotted with antibodies specific for His tags or to MUC1-C (as described above). His-tagged MUC1 was present in GST-STAT3 adsorbates but not GST-adsorbates.
For orientation: A western blot detects proteins with antibodies after separation by electrophoresis.

T1 sequence (P08515 whole entry): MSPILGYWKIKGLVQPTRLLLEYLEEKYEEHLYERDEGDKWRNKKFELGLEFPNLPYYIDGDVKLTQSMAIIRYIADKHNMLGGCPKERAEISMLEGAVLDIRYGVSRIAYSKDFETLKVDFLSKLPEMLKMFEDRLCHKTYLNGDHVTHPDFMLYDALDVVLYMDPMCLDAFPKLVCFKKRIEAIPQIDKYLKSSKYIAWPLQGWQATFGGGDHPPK

B1: His-tagged MUC1-CD (MUC1 cytoplasmic domain) (other)
chain: CQCRRKNYGQLDIFPARDTYHPMSEYPTYHTHGRYVPPSSTDRSPYEKVSAGNGGSSLSYTNPAVAAASANL
notes: Purified recombinant protein; also called His-MUC1; not shown: His tag
In the case of B1, the binding result is given as “no binding”.

Values taken from patent publication US20090092600A1 (Dana-Farber, published 2009).
